How the values were obtained:
human CD16A-His6 (F158) [1] = target: T1, human CD16A-His6 (F158) (human, UniProt P08637 17-208); assay: SPR; VHH-Fc captured on anti-human Fc surface
T1 construct: Bought ECD fragment; also called human CD16A (F158); not shown: six-histidine tag (His6)

human CD16A-His6 (V158) [2] = target: T2, human CD16A-His6 (V158) (human, UniProt P08637 17-208); assay: SPR; VHH-Fc captured on anti-human Fc surface
T2 construct: Bought (Sino Biologics) ECD fragment; also called CD16A 158V; human CD16A (V158); not shown: six-histidine tag (His6)

human CD16B-His6 (NA1) = target: T3, human CD16B-His6 (NA1) (human, UniProt O75015 17-200); assay: SPR; VHH-Fc captured on anti-human Fc surface; row head prints 'KD (nM)', taken as M like the rest of the table
T3 construct: Bought ECD fragment; also called CD16B NA1; human CD16B (NA1); not shown: six-histidine tag (His6)
T3 chain: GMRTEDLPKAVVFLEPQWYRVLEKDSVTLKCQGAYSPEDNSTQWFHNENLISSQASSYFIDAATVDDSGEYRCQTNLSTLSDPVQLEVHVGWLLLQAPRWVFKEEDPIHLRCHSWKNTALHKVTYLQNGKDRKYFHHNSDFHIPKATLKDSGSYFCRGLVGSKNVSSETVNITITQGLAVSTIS

human CD16B-His6 (NA2) = target: T4, human CD16B-His6 (NA2) (human, UniProt O75015 17-200); assay: as above
T4 construct: Bought ECD fragment; also called CD16B NA2; human CD16B (NA2); not shown: six-histidine tag (His6)
T4 chain: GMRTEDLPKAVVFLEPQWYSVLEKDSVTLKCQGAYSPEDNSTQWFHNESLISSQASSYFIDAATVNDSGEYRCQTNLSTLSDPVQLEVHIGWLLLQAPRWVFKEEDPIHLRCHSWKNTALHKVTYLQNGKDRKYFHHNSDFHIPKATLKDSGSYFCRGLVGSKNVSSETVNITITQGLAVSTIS

[3] = target: T5, human CD16A (F158) on NK92mi cells (human, UniProt P08637 17-254); assay: flow cytometry on live NK92mi/CD16A 158F cells
T5 construct: NK92mi cells co-transduced with CD16A (F158) and FcRgamma cDNAs; also called NK92mi/CD16A F158

human CD16A-His6 (F158) [4] = target: T1, human CD16A-His6 (F158); assay: SPR; VHH-Fc captured on anti-human Fc surface; row head prints 'KD (nM)', text gives 0.08 nM, so M
human CD16A-His6 (V158) [5] = target: T2, human CD16A-His6 (V158); assay: as above

- koff (human CD16A-His6 (F158) [1]): 0.000119 s⁻¹
- kon (human CD16A-His6 (F158) [1]): 1.44e+06 M⁻¹ s⁻¹
- koff (human CD16A-His6 (V158) [2]): 0.00011 s⁻¹
- kon (human CD16A-His6 (V158) [2]): 1.35e+06 M⁻¹ s⁻¹
- Kd (human CD16B-His6 (NA1)): 942 nM
- Kd (human CD16B-His6 (NA2)): 1050 nM
- EC50 [3]: 4.42 nM
- Kd (human CD16A-His6 (F158) [4]): 0.0825 nM
- Kd (human CD16A-His6 (V158) [5]): 0.0816 nM
B1: BG524P (VHH-Fc) (VHH)
chain: EVQLVESGGGLVQPGGSLRLSCAASGRTFGSYAVGWFRQAPGKGREWVAAIRRSDATTDYVDSVKGRFTISRDNAKNSVYLQMNSLRPEDTAVYYCAASDSDYEPLGDYWGQGTLVTVSSEPKSSDKTHTCPPCPAPPAAGPSVFLFPPKPKDTLMISRTPEVTCVVVDVSHEDPEVKFNWYVDGVEVHNAKTKPREEQYNSTYRVVSVLTVLHQDWLNGKEYKCKVSNKALAAPIEKTISKAKGQPREPQVYTLPPSREEMTKNQVSLTCLVKGFYPSDIAVEWESNGQPENNYKTTPPVLDSDGSFFLYSKLTVDKSRWQQGNVFSCSVMHEALHNHYTQKSLSLSPGK
notes: Humanized BG523P variant, VHH fused to the N-terminus of the human IgG1 variant Fc

— US20250075002A1 (BEIGENE SWITZERLAND, published 2025)
